B1: purified recombinant active PKCµ (ProQinase) (protein)
chain: MSAPPVLRPPSPLLPVAAAAAAAAAALVPGSGPGPAPFLAPVAAPVGGISFHLQIGLSREPVLLLQDSSGDYSLAHVREMACSIVDQKFPECGFYGMYDKILLFRHDPTSENILQLVKAASDIQEGDLIEVVLSASATFEDFQIRPHALFVHSYRAPAFCDHCGEMLWGLVRQGLKCEGCGLNYHKRCAFKIPNNCSGVRRRRLSNVSLTGVSTIRTSSAELSTSAPDEPLLQKSPSESFIGREKRSNSQSYIGRPIHLDKILMSKVKVPHTFVIHSYTRPTVCQYCKKLLKGLFRQGLQCKDCRFNCHKRCAPKVPNNCLGEVTINGDLLSPGAESDVVMEEGSDDNDSERNSGLMDDMEEAMVQDAEMAMAECQNDSGEMQDPDPDHEDANRTISPSTSNNIPLMRVVQSVKHTKRKSSTVMKEGWMVHYTSKDTLRKRHYWRLDSKCITLFQNDTGSRYYKEIPLSEILSLEPVKTSALIPNGANPHCFEITTANVVYYVGENVVNPSSPSPNNSVLTSGVGADVARMWEIAIQHALMPVIPKGSSVGTGTNLHRDISVSISVSNCQIQENVDISTVYQIFPDEVLGSGQFGIVYGGKHRKTGRDVAIKIIDKLRFPTKQESQLRNEVAILQNLHHPGVVNLECMFETPERVFVVMEKLHGDMLEMILSSEKGRLPEHITKFLITQILVALRHLHFKNIVHCDLKPENVLLASADPFPQVKLCDFGFARIIGEKSFRRSVVGTPAYLAPEVLRNKGYNRSLDMWSVGVIIYVSLSGTFPFNEDEDIHDQIQNAAFMYPPNPWKEISHEAIDLINNLLQVKMRKRYSVDKTLSHPWLQDYQTWLDLRELECKIGERYITHESDDLRWEKYAGEQGLQYPTHLINPSASHSDTPETEETEMKALGERVSIL
B2: purified recombinant active PKCζ (ProQinase) (protein)
chain: MPSRTGPKMEGSGGRVRLKAHYGGDIFITSVDAATTFEELCEEVRDMCRLHQQHPLTLKWVDSEGDPCTVSSQMELEEAFRLARQCRDEGLIIHVFPSTPEQPGLPCPGEDKSIYRRGARRWRKLYRANGHLFQAKRFNRRAYCGQCSERIWGLARQGYRCINCKLLVHKRCHGLVPLTCRKHMDSVMPSQEPPVDDKNEDADLPSEETDGIAYISSSRKHDSIKDDSEDLKPVIDGMDGIKISQGLGLQDFDLIRVIGRGSYAKVLLVRLKKNDQIYAMKVVKKELVHDDEDIDWVQTEKHVFEQASSNPFLVGLHSCFQTTSRLFLVIEYVNGGDLMFHMQRQRKLPEEHARFYAAEICIALNFLHERGIIYRDLKLDNVLLDADGHIKLTDYGMCKEGLGPGDTTSTFCGTPNYIAPEILRGEEYGFSVDWWALGVLMFEMMAGRSPFDIITDNPDMNTEDYLFQVILEKPIRIPRFLSVKASHVLKGFLNKDPKERLGCRPQTGFSDIKSHAFFRSIDWDLLEKKQALPPFQPQITDDYGLDNFDTQFTSEPVQLTPDDEDAIKRIDQSEFEGFEYINPLLLSTEESV
B3: purified recombinant active PKCι (ProQinase) (protein)
chain: MSHTVAGGGSGDHSHQVRVKAYYRGDIMITHFEPSISFEGLCNEVRDMCSFDNEQLFTMKWIDEEGDPCTVSSQLELEEAFRLYELNKDSELLIHVFPCVPERPGMPCPGEDKSIYRRGARRWRKLYCANGHTFQAKRFNRRAHCAICTDRIWGLGRQGYKCINCKLLVHKKCHKLVTIECGRHSLPQEPVMPMDQSSMHSDHAQTVIPYNPSSHESLDQVGEEKEAMNTRESGKASSSLGLQDFDLLRVIGRGSYAKVLLVRLKKTDRIYAMKVVKKELVNDDEDIDWVQTEKHVFEQASNHPFLVGLHSCFQTESRLFFVIEYVNGGDLMFHMQRQRKLPEEHARFYSAEISLALNYLHERGIIYRDLKLDNVLLDSEGHIKLTDYGMCKEGLRPGDTTSTFCGTPNYIAPEILRGEDYGFSVDWWALGVLMFEMMAGRSPFDIVGSSDNPDQNTEDYLFQVILEKQIRIPRSLSVKAASVLKSFLNKDPKERLGCHPQTGFADIQGHPFFRNVDWDMMEQKQVVPPFKPNISGEFGLDNFDSQFTNEPVQLTPDDDDIVRKIDQSEFEGFEYINPLLMSAEECV
B4: baculovirus expressed and purified GST-JARID1B (protein)
chain: MEAATTLHPGPRPALPLGGPGPLGEFLPPPECPVFEPSWEEFADPFAFIHKIRPIAEQTGICKVRPPPDWQPPFACDVDKLHFTPRIQRLNELEAQTRVKLNFLDQIAKYWELQGSTLKIPHVERKILDLFQLNKLVAEEGGFAVVCKDRKWTKIATKMGFAPGKAVGSHIRGHYERILNPYNLFLSGDSLRCLQKPNLTTDTKDKEYKPHDIPQRQSVQPSETCPPARRAKRMRAEAMNIKIEPEETTEARTHNLRRRMGCPTPKCENEKEMKSSIKQEPIERKDYIVENEKEKPKSRSKKATNAVDLYVCLLCGSGNDEDRLLLCDGCDDSYHTFCLIPPLHDVPKGDWRCPKCLAQECSKPQEAFGFEQAARDYTLRTFGEMADAFKSDYFNMPVHMVPTELVEKEFWRLVSTIEEDVTVEYGADIASKEFGSGFPVRDGKIKLSPEEEEYLDSGWNLNNMPVMEQSVLAHITADICGMKLPWLYVGMCFSSFCWHIEDHWSYSINYLHWGEPKTWYGVPGYAAEQLENVMKKLAPELFVSQPDLLHQLVTIMNPNTLMTHEVPVYRTNQCAGEFVITFPRAYHSGFNQGFNFAEAVNFCTVDWLPLGRQCVEHYRLLHRYCVFSHDEMICKMASKADVLDVVVASTVQKDMAIMIEDEKALRETVRKLGVIDSERMDFELLPDDERQCVKCKTTCFMSAISCSCKPGLLVCLHHVKELCSCPPYKYKLRYRYTLDDLYPMMNALKLRAESYNEWALNVNEALEAKINKKKSLVSFKALIEESEMKKFPDNDLLRHLRLVTQDAEKCASVAQQLLNGKRQTRYRSGGGKSQNQLTVNELRQFVTQLYALPCVLSQTPLLKDLLNRVEDFQQHSQKLLSEETPSAAELQDLLDVSFEFDVELPQLAEMRIRLEQARWLEEVQQACLDPSSLTLDDMRRLIDLGVGLAPYSAVEKAMARLQELLTVSEHWDDKAKSLLKARPRHSLNSLATAVKEIEEIPAYLPNGAALKDSVQRARDWLQDVEGLQAGGRVPVLDTLIELVTRGRSIPVHLNSLPRLETLVAEVQAWKECAVNTFLTENSPYSLLEVLCPRCDIGLLGLKRKQRKLKEPLPNGKKKSTKLESLSDLERALTESKETASAMATLGEARLREMEALQSLRLANEGKLLSPLQDVDIKICLCQKAPAAPMIQCELCRDAFHTSCVAVPSISQGLRIWLCPHCRRSEKPPLEKILPLLASLQRIRVRLPEGDALRYMIERTVNWQHRAQQLLSSGNLKFVQDRVGSGLLYSRWQASAGQVSDTNKVSQPPGTTSFSLPDDWDNRTSYLHSPFSTGRSCIPLHGVSPEVNELLMEAQLLQVSLPEIQELYQTLLAKPSPAQQTDRSSPVRPSSEKNDCCRGKRDGINSLERKLKRRLEREGLSSERWERVKKMRTPKKKKIKLSHPKDMNNFKLERERSYELVRSAETHSLPSDTSYSEQEDSEDEDAICPAVSCLQPEGDEVDWVQCDGSCNQWFHQVCVGVSPEMAEKEDYICVRCTVKDAPSRK

Key:
[1] = biological target: histone H3 in untreated nucleosomes purified from HeLa cells, P68431
[2] = biological target: H3K4me2T6ph peptide (H3 tail residues 1-20), P68431
[3] = biological target: H3K4me3T6ph peptide (H3 tail residues 1-20), P68431
[4] = biological target: H3K4me3 peptide (H3 tail residues 1-20), P68431
[5] = biological target: H3K4me2 peptide (H3 tail residues 1-20), P68431

| Protein | phosphorylation of nucleosomes at H3T6 (in vitro kinase assay, Western blot with α-H3T6ph) [1] | demethylation assay, mass spectrometry [2] | demethylation assay, mass spectrometry [3] | demethylation assay, mass spectrometry [4] | demethylation assay, mass spectrometry [5] |
| --- | --- | --- | --- | --- | --- |
| B1 | only PKCα, 131 and 132 phosphorylate nucleosomes at H3T6 (PKCµ tested, no phosphorylation) |  |  |  |  |
| B2 | only PKCα, 131 and 132 phosphorylate nucleosomes at H3T6 (PKCζ tested, no phosphorylation) |  |  |  |  |
| B3 | only PKCα, 131 and 132 phosphorylate nucleosomes at H3T6 (PKCι tested, no phosphorylation) |  |  |  |  |
| B4 |  | demethylation of tri- and dimethyl H3K4 peptides phosphorylated at T6 (H3K4me3T6ph and H3K4me2T6ph) is severely impaired | demethylation of tri- and dimethyl H3K4 peptides phosphorylated at T6 (H3K4me3T6ph and H3K4me2T6ph) is severely impaired | Recombinant, purified JARID1B (FIG. 9) efficiently demethylates H3K4me3 and H3K4me2 peptides | Recombinant, purified JARID1B (FIG. 9) efficiently demethylates H3K4me3 and H3K4me2 peptides |

From patent US20120329854
